Data reported in article doi:10.1101/2021.08.05.455261.
Read-outs that look alike come from different tables or passages of the source.

Columns and labels:
Assay in all cases: SEC
[1] = biological target: C-terminal domain homolog (CTDH) from Anabaena variabilis (Anabaena variabilis)
[2] = biological target: C-terminal domain homolog (CTDH) from Anabaena variabilis (Anabaena variabilis); remark: listed apart in the source
[3] = biological target: C-terminal domain homolog (CTDH) from Anabaena variabilis (Anabaena variabilis); remark: listed apart in the source
[4] = biological target: C-terminal domain homolog (CTDH) from Anabaena variabilis (Anabaena variabilis); remark: listed apart in the source

Measured: stoichiometry N

C-terminal domain homolog (CTDH) from Anabaena variabilis (natural protein)
2: all assays above
